B4: phAimR^C6S/C74S/C99S/C136S/C223S/C267S/N103C, labelled with Alexa488 and Cy5 (natural protein, Bacillus phage phi3T)
chain: MIKNESEKDNQLAARLAKLAGYEKVNGFYKFVNTPEKEMENLGGLLKIVKNLFPDSEEQLLSEYFLELDPNKKSARQSVEYSDINQWDTLTDKIIINLSNSKCSTSQEWGKVYSLHRKLNKNEISLNDAIRESGKSKIKSAEMLFFSNAMLMYAYLNIGEFGLMKSTSKLLEFDDLPEGFIKESFKSRVSMLEANISLNENSLLEARQHSNRAIENSNVNRISFFAYLTIGNTLIFEDYDEAKKAYIKGQKYAKNPVHQEMLDGALSFLSNIWKKENQWVNYNSDNIKYLQLRAFYYINQGNIEEATEILDELSSRDQDENELGFYYYYKGLISQDKTDYYKSIRYFKKSDDKYFIQLPLLQLERMGADLELLNLISI
modifications: Alexa Fluor 488 C5 maleimide or Cy5 maleimide on the cysteine at N103C
notes: AimR of Bacillus phage phi3T (GenBank KY030782.1), six solvent-exposed cysteines changed to serine and N103C added for labelling; One dye per chain; the doubly labelled species is a dimer with Alexa488 on one subunit and Cy5 on the other; also called phAimR (N103C labeling site); N103C dye-labeling; source: E. coli BL21 (DE3), purified in the same way as the wild-type phAimR, dye-conjugated, …
B5: phAimR^C6S/C74S/C99S/C136S/C223S/C267S/D174C, labelled with Alexa488 and Cy5 (natural protein, Bacillus phage phi3T)
chain: MIKNESEKDNQLAARLAKLAGYEKVNGFYKFVNTPEKEMENLGGLLKIVKNLFPDSEEQLLSEYFLELDPNKKSARQSVEYSDINQWDTLTDKIIINLSNSKNSTSQEWGKVYSLHRKLNKNEISLNDAIRESGKSKIKSAEMLFFSNAMLMYAYLNIGEFGLMKSTSKLLEFCDLPEGFIKESFKSRVSMLEANISLNENSLLEARQHSNRAIENSNVNRISFFAYLTIGNTLIFEDYDEAKKAYIKGQKYAKNPVHQEMLDGALSFLSNIWKKENQWVNYNSDNIKYLQLRAFYYINQGNIEEATEILDELSSRDQDENELGFYYYYKGLISQDKTDYYKSIRYFKKSDDKYFIQLPLLQLERMGADLELLNLISI
modifications: Alexa Fluor 488 C5 maleimide or Cy5 maleimide on the cysteine at D174C
notes: AimR of Bacillus phage phi3T (GenBank KY030782.1), six solvent-exposed cysteines changed to serine and D174C added for labelling; One dye per chain; the doubly labelled species is a dimer with Alexa488 on one subunit and Cy5 on the other; also called phAimR (D174C labeling site); D174C dye-labeling; source: E. coli BL21 (DE3), purified in the same way as the wild-type phAimR, dye-conjugated, …

Assays:
[1] = biological target: B4; assay: FRET or BRET; smFRET in solution; about 100 pM doubly labelled (Alexa488/Cy5) phAimR, peptide titrated; KD from the population of the enriched FRET state; 25 C, 20 mM Tris-HCl pH 7.5, 100 mM NaCl, 0.005% Tween 20, 1 mM L-ascorbic acid, 1 mM methylviologen; conditions: both partners purified
[2] = biological target: B5; assay: as above; conditions: both partners purified
[3] = biological target: the molecule itself; assay: SAXS; 100 uM protein without peptide; room temperature; 25 mM Tris-HCl pH 8.0, 300 mM NaCl
[4] = biological target: T1, phAimR dimer (D174C-labelled) (Bacillus phage phi3T, UniProt P0DOE3, C136S/C223S/C267S/C6S/C74S/C99S/D174C); assay: smFRET titration of phAimR dimer labelled at D174C (Alexa488/Cy5); assay type: binding; conditions: no ligand
T1 construct: 6xHis (N, cleaved yes); made in house; host or cells: Escherichia coli BL21 (DE3)
Procedure: (§1) The cysteine substitutions of phAimR (phAimR^C6S/C74S/C99S/C136S/C223S/C267S/N103C or phAimR^C6S/C74S/ C99S/C136S/C223S/C267S/D174C) were generated with a standard PCR-based strategy. Proteins were prepared in the same way as the wild-type phAimR. Alexa Fluor 488 C5 maleimide (Alexa488, A10254, Thermo Fisher, Shanghai, China) and Cy5 maleimide (Cy5, PA15131, GE Healthcare, Shanghai, China) were used as fluorescence donor and acceptor, respectively. A desalting column (HiPrep 26/10, GE Healthcare, Shanghai, China) was used to exchange the protein buffer into the conjugation buffer containing 20 mM phosphate (pH 7.4) and 100 mM NaCl. The protein fraction was collected in premixed Alexa488 and Cy5 dyes. The conjugation of phAimR was performed with Alexa488 and Cy5 at a molar ratio of 1:4:4. Conjugation reaction was performed for 3 h at room temperature in the dark, and the mixture was then purified using a Source-Q column (GE Healthcare, Shanghai, China). The fractions of double-labeled protein that had absorption at 280 nm, 493 nm and 640 nm were collected for smFRET data collection.
(§2) The laser confocal fluorescence microscope MicroTime 200 (PicoQuant, Berlin, Germany) was used for single-molecule imaging, and a pulsed interleaved excitation (PIE) scheme was used with two SPCM-AQRH detectors (Excelitas, Waltham, MA, USA) for recording fluorescence time traces at two different wavelengths. Two picosecond-pulsed diode laser heads (LDH-P-C-485 and LDH-P-C-640; PicoQuant, Berlin, Germany) were driven by a PDL 828 Sepia II driver (PicoQuant) at a repetition rate of 40 MHz, which allowed interleaved excitations for Alexa488 and Cy5. Each laser was coupled to the inverted microscope IX 73 (Olympus, Beijing, China) through a single-mode fiber, and was reflected by a dichroic mirror through a water-immersion objective (UPLSAPO 60×, N.A. 1.20). The protein sample was loaded onto a hybridization chamber (Thermo Fisher) glued to a glass coverslip (Thermo Fisher, Shanghai, China). The laser confocal point was set to about 50 μm above the coverslip. The excitation power at the back of the objective was about 100 μW for the 485 nm laser and about 35 μW for the 640 nm laser, as estimated with a power meter (PM20-FC; Thorlabs, Shanghai, China). Focused to a 100 μm pinhole, the fluorescence emission from the excited protein molecule was collected with the same objective. The donor and acceptor emissions were separated with a dichroic mirror (T635lpxr; Chroma, Xiamen, China). The donor emission was filtered with a 520/35 BP band pass, and the acceptor emission was filtered with a 690/70 BP band pass, before being focused onto the two SPCM-AQRH detectors.
(§3) The fluorescence outputs were recorded with a TimeHarp 260 PCI board (PicoQuant, Berlin, Germany) built into a PC workstation, and the data were stored in the time-tagged time-resolved module (PicoQuant, Berlin, Germany). The photon counts including fDex/Dem, fDex/Aem and fAex/Aem were obtained by binning the photons in 1 ms bins using SymPhoTime64 software (PicoQuant, Berlin, Germany). […] With all three fluorescence time traces recorded, the signals from the donor-only or acceptor-only protein molecules were filtered out, so as to ensure that an fDex/Aem photon only arises from a doubly labeled protein. […]

[5] = biological target: T2, phAimR dimer (N103C-labelled) (Bacillus phage phi3T, UniProt P0DOE3, C136S/C223S/C267S/C6S/C74S/C99S/N103C); assay: smFRET titration of phAimR dimer labelled at N103C (Alexa488/Cy5); assay type: binding; conditions: no ligand
T2 construct: 6xHis (N, cleaved yes); made in house; host or cells: Escherichia coli BL21 (DE3)
Procedure: as §1, §2, §3

[6] = biological target: the molecule itself; assay: FRET or BRET; smFRET in solution, FRET between the two subunits (one dye site per chain), no ligand; about 100 pM doubly labelled phAimR; 25 C, 20 mM Tris-HCl pH 7.5, 100 mM NaCl, 0.005% Tween 20

B1: phi3T arbitrium peptide (SAIRGA) (peptide)
peptide: SAIRGA
notes: mature arbitrium peptide processed from the AimP pro-peptide (43 amino acids) of Bacillus phage phi3T; also called SAIRGA peptide; phi3T-derived peptide
Kd [1]: 41.5 ± 5.8 nM
Kd [2]: 22.9 ± 0.5 nM

B2: phAimR carrying two amino acids substitutions (phAimR^Y341A/E371A) (natural protein, Bacillus phage phi3T)
chain: MIKNECEKDNQLAARLAKLAGYEKVNGFYKFVNTPEKEMENLGGLLKIVKNLFPDSEEQLLSEYFLELDPNKKCARQSVEYSDINQWDTLTDKIIINLCNSKNSTSQEWGKVYSLHRKLNKNEISLNDAIRESGKCKIKSAEMLFFSNAMLMYAYLNIGEFGLMKSTSKLLEFDDLPEGFIKESFKSRVSMLEANISLNENSLLEARQHSNRAIENSNVNRICFFAYLTIGNTLIFEDYDEAKKAYIKGQKYAKNPVHQEMLDGALCFLSNIWKKENQWVNYNSDNIKYLQLRAFYYINQGNIEEATEILDELSSRDQDENELGFYYYYKGLISQDKTDYAKSIRYFKKSDDKYFIQLPLLQLERMGADLALLNLISI
notes: AimR of Bacillus phage phi3T (GenBank KY030782.1) with Y341A and E371A; also called phAim^Y341A/E371A; phAimR^Y341/E371A; source: E. coli BL21 (DE3), purified, prepared in the same way as the wild-type protein; not shown: His6, N-terminal, cleaved
stoichiometry N [3]: 2

B3: phAimR: AimR from Phi3T phage (GenBank: KY030782.1), transcription factor and arbitrium peptide receptor (protein)
chain: MIKNECEKDNQLAARLAKLAGYEKVNGFYKFVNTPEKEMENLGGLLKIVKNLFPDSEEQLLSEYFLELDPNKKCARQSVEYSDINQWDTLTDKIIINLCNSKNSTSQEWGKVYSLHRKLNKNEISLNDAIRESGKCKIKSAEMLFFSNAMLMYAYLNIGEFGLMKSTSKLLEFDDLPEGFIKESFKSRVSMLEANISLNENSLLEARQHSNRAIENSNVNRICFFAYLTIGNTLIFEDYDEAKKAYIKGQKYAKNPVHQEMLDGALCFLSNIWKKENQWVNYNSDNIKYLQLRAFYYINQGNIEEATEILDELSSRDQDENELGFYYYYKGLISQDKTDYYKSIRYFKKSDDKYFIQLPLLQLERMGADLELLNLISI
modifications: left off: His6, N-terminal, cleaved
notes: AimR from Phi3T phage (GenBank: KY030782.1), transcription factor and arbitrium peptide receptor
FRET efficiency centre of high-FRET species (state 1) [4]: ~63%
FRET efficiency centre of low-FRET species (state 2) [4]: about 35%
population of high-FRET species (state 1) [4]: ~ 61%
population of low-FRET species (state 2) [4]: ~ 39%
FRET efficiency centre of high-FRET species (state 2) [5]: ~62%
FRET efficiency centre of low-FRET species (state 1) [5]: about 30%
population of high-FRET species (Phigh, state 2) [5]: ~ 42%
population of low-FRET species (Plow, state 1) [5]: ~ 58%

B4
stoichiometry N [6]: 2

B5
stoichiometry N [6]: 2

Source: paper PMC8464984, “AimR Adopts Preexisting Dimer Conformations for Specific Target Recognition in Lysis-Lysogeny Decisions of Bacillus Phage phi3T” (Biomolecules, 2021)
